Measured values published in paper PMC3280358 (2012).
Residue numbers refer to the chain shown, from its start. In names and notes the source's numbering stands.

B1: Nbs1 (1-382) K160M (domain or fragment)
chain: MWKLLPAAGPAGGEPYRLLTGVEYVVGRKNCAILIENDQSISRNHAVLTANFSVTNLSQTDEIPVLTLKDNSKYGTFVNEEKMQNGFSRTLKSGDGITFGVFGSKFRIEYEPLVACSSCLDVSGKTALNQAILQLGGFTVNNWTEECTHLVMVSVKVTIMTICALICGRPIVKPEYFTEFLKAVESKKQPPQIESFYPPLDEPSIGSKNVDLSGRQERKQIFKGKTFIFLNAKQHKKLSSAVVFGGGEARLITEENEEEHNFFLAPGTCVVDTGITNSQTLIPDCQKKWIQSIMDMLQRQGLRPIPEAEIGLAVIFMTTKNYCDPQGHPSTGLKTTTPGPSLSQGVSVDEKLMPSAPVNTTTYVADTESEQADTWDLSERPK
B2: recombinant fragment of Nbs1 (residues 1-382), wild type (domain or fragment)
chain: B1 chain with M160K

Columns and labels:
[1] = biological target: T13 monophosphorylated Rad51 NTD peptide (human, UniProt Q06609, phosphothreonine at T13); experiment: ITC
[2] = biological target: T13/S14 diphosphorylated Rad51 NTD peptide (human, UniProt Q06609, phosphothreonine at T13; phosphoserine at S14); experiment: ITC

Row | Binder | Kd [1] [µM] | Kd [2] [µM]
1 | B1 | 24 | –
2 | B2 | – | 57
